Test results taken from patent US6368863, “Reagents and methods for modulating gene expression through RNA mimicry” (ISIS Pharmaceuticals Inc.).

Key:
Details in all cases: protein: synthetic; tags: synthetic 39-mer peptide made by solid phase synthesis, UCSF Biotechnology Resource Core; label: 5'-32P; hairpin with bulge
[1] = biological target: T1, Tat39 (Tat3B; HIV Tat residues 48-86) (HIV-1, UniProt P04608 P04608:48-86); assay: EMSA; 5 pM oligo; 1:1 Kd; Krel 4
T1 chain: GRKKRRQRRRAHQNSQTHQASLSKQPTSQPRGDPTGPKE

[2] = biological target: T1, Tat39 (Tat3B; HIV Tat residues 48-86); assay: EMSA; 50 pM oligo; 1:1 Kd; 2-3:1 Kd 8000-20000 nM; Krel 10
[3] = biological target: T1, Tat39 (Tat3B; HIV Tat residues 48-86); assay: EMSA; 1:1 Kd; 2-3:1 Kd 200 nM; 10 mM Tris pH 7.5, 70 mM NaCl, 4 C
[4] = biological target: T1, Tat39 (Tat3B; HIV Tat residues 48-86); assay: EMSA; 1:1 Kd; 2-3:1 Kd 30 nM; Krel 4
[5] = biological target: T1, Tat39 (Tat3B; HIV Tat residues 48-86); assay: EMSA; 1:1 Kd; Krel 1

## GCCAGAUCUGAGCCUGGGAGCUCUCUGGC (XNA, 2'-OMe, PS) [2'-OMe, P=S delta-TAR #2195 29-mer (16-45(-A17))]
[1]
  Kd: < 10 nM
[2]
  Kd: 4 nM

B1: TAR 59-mer (1-59) (ssRNA)
RNA: GGGUCUCUCUGGUUAGACCAGAUCUGAGCCUGGGAGCUCUCUGGCUAACUAGGGAACCC
[3]
  Kd: 40 nM

B2: A:P=S TAR 59-mer (1-59) (ssRNA)
RNA: B1 RNA
modifications: PS linkages at A residues
[4]
  Kd: < 10 nM

B3: 5-BrU TAR 59-mer (1-59) (ssRNA)
RNA: B1 RNA
modifications: 5-bromouridine in place of U
[5]
  Kd: 40 nM
